Data set [1] concerns the molecule itself. Nature of the data set: SEC; Superdex 75 Increase 10/300 GL, 20 mM Tris, 150 mM NaCl, pH 7.6; no reducing agent (WT also with MV radicals); oligomer peak at 9.2 mL, dimer peak at 10.9 mL.
The data set “crystal structure” concerns the molecule itself. Nature of the data set: crystal structure.
Data set [2] concerns the molecule itself. Nature of the data set: SEC; as a1, protein treated with the reducing agent DTT.

B1: cysteine-free (CF) ScdA variant (C30A/C31A/C191A), N-terminal His6 tag (enzyme)
chain: not shown
notes: also called CF variant; not shown: His6, N-terminal, kept
As usually defined, the stoichiometry N is a count of units in the complex or per binding partner. In the case of B1, the “stoichiometry N” value in data set [1] is 2.

B2: tag-free variant of CF ScdA (tagless ScdA) (enzyme)
chain: not shown
notes: also called CF ScdA (crystal); source: E. coli, purified (Q Sepharose, SEC)
Regarding B2, the “stoichiometry N” value in “crystal structure” amounted to 2.

B3: wild-type (WT) ScdA, S. aureus, N-terminal His6 tag (enzyme)
chain: not shown
notes: also called as-isolated WT; reduced WT; not shown: His6, N-terminal, kept
Take B3: the “stoichiometry N” value in data set [2] was 2.

B4: CF ScdA S77C (enzyme)
chain: not shown
notes: not shown: His6, N-terminal, kept
B4: the “stoichiometry N” value in data set [1] was 2.

B5: ScdA S77E variant (wild-type cysteines) (enzyme)
chain: not shown
notes: also called S77E mutant; not shown: His6, N-terminal, kept
Consider B5, for which the binding result in data set [1] is “binds”.

Source of the values: article PMC12412097, “Structure and Nitrite Reductase Activity of the Di-iron Protein ScdA in Staphylococcus aureus” (Journal of the American Chemical Society, 2025).
